Laboratory results taken from the supplement of paper PMC9170038.

System: MS2 coat protein
Test: apparent KD of MS2 coat protein; designed switch direction (-1 OFF switch, 1 ON switch): -1; higher = weaker reporter binding
Summary of the method: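 Three titration conditions were used: no input, 200 uM small-molecule ligand, and an oligonucleotide input. In each, SNAP-549-labelled MS2 coat protein was raised from 0.7 or 1.5 nM, doubling, to 3 µM over designed RNA switches transcribed on Illumina chips by stalled E. coli RNA polymerase. Curve fits of normalised cluster fluorescence gave values whose per-design median over clusters is the apparent KD.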

[1] = Eterna round: R95, input ligand: FMN 200 uM
[2] = Eterna round: R95, input ligand: microRNA oligo, concentration not stated
[3] = Eterna round: R95, input ligand: none

For “GGAAAACAUGAGGAUCACCCAUGUAAGGAUAUGCAAAAGGAUAUAGAAGGAAGAAAAAGCAGAAGGUACAAAGG [salish99-ex1_r3_099] (puzzle: Exclusion 1)”, the “apparent KD of MS2 coat protein” value [1] was 72.1 nM, the “apparent KD of MS2 coat protein” value [2] was 44.8 nM and the “apparent KD of MS2 coat protein” value [3] was 57.9 nM.

For “GGAAAGGUAGGAUAUACGAAGAAAAAGGGUAGAAUAAUAACACAUGAGGAUCACCCAUGUAGAAGGACCAAAUG [Mat - Exclusion 2 - Mod of my Tesla design - D7] (puzzle: Exclusion 2)”, the “apparent KD of MS2 coat protein” value [1] was 71.1 nM, the “apparent KD of MS2 coat protein” value [2] was 37.8 nM and the “apparent KD of MS2 coat protein” value [3] was 29 nM.

With “GGAACGCGAGGAUAUACAAGGCCGGAAACGGAAAUAGCCUCACAUGAGGAUCACCCAUGUAGAAGGCGCGGAGA [AK-MS2ROC-r4-exclusion2-26] (Eterna round: R97, puzzle: Exclusion 2)” the “apparent KD of MS2 coat protein” value (input ligand: FMN 200 uM) was 175 nM and the “apparent KD of MS2 coat protein” value (input ligand: none) was 22.1 nM.

“GGAAUACAUGAGGAUCACCCAUGUAAGGAUAUGCUGAAUAACACGGAAUUAACGUGCAGCAGAAGGUACAAAUG [Mat - Mod of my Eli Mod D44] (puzzle: Exclusion 1)” was tested, and the “apparent KD of MS2 coat protein” value [1] was 105 nM, the “apparent KD of MS2 coat protein” value [2] was 112 nM and the “apparent KD of MS2 coat protein” value [3] was 93.2 nM.

With “GGAAUGUAAGGAUAUCCGAAAGGCGAGCGAAAGCGAGCAAAGGAGAAGGUACAUGAGGAUCACCCAUGUAAGGG [AK-MS2ROC-r4-exclusion4-11.3] (Eterna round: R97, puzzle: Exclusion 4)” the “apparent KD of MS2 coat protein” value (input ligand: FMN 200 uM) was 163 nM and the “apparent KD of MS2 coat protein” value (input ligand: none) was 513 nM.

For “GGACAUAAAGUCAGGAUAUUAAGGCGAACAAGCGAUGAGAAGGGACAUGAGGAUCACCCAUGUGAUUCUCAUCA [Isedzaor] (Eterna round: R97, puzzle: Brourd's mod of Exclusion 4)”, the “apparent KD of MS2 coat protein” value (input ligand: FMN 200 uM) was 20.5 nM and the “apparent KD of MS2 coat protein” value (input ligand: none) was 14 nM.

For “GGACCCAAAGGAUAUACUUGAGGAUCACCCAAGUAUGUCGCUUGGGCACGGUAAAGGAGUAGAAGGUUGGGAAA [Esri] (Eterna round: R97, puzzle: Exclusion 3)”, the “apparent KD of MS2 coat protein” value (input ligand: FMN 200 uM) was 17.6 nM and the “apparent KD of MS2 coat protein” value (input ligand: none) was 14.4 nM.

“GGACCGUGAGGAUAUAGAGGUCGCGUCAUAGGGCGUGGUUACUAGAAGGCACAUGAGGAUCACCCAUGUUCAUC [Eternabot (L1) Solution 7] (Eterna round: R97, puzzle: Exclusion 4)” was tested, and the “apparent KD of MS2 coat protein” value (input ligand: FMN 200 uM) was 50.4 nM and the “apparent KD of MS2 coat protein” value (input ligand: none) was 19.7 nM.

For “GGAGAGAGGCAGGAUAUGGGAGGGAGGACCGGACCAGAAGGGUUGACAUGAGGAUCACCCAUGUAGAGAUCCUC [AK-MS2ROC-r4-exclusion6-6.8] (Eterna round: R97, puzzle: Exclusion 6)”, the “apparent KD of MS2 coat protein” value (input ligand: FMN 200 uM) was 563 nM and the “apparent KD of MS2 coat protein” value (input ligand: none) was 1140 nM.

In the case of “GGAGGAAGAGAGGAUAUGCGCUCAAGGAGAAAAGCAGAAGGUUCAACAUGAGGAUCACCCAUGUAUGAUCCUCA [AK-MS2ROC-r4-exclusion6-4] (Eterna round: R97, puzzle: Exclusion 6)”, the “apparent KD of MS2 coat protein” value (input ligand: FMN 200 uM) was 342 nM and the “apparent KD of MS2 coat protein” value (input ligand: none) was 203 nM.

With “GGAUCGAAUGUGAGGAUAUGCAGGUCCUUGGAUCUGCAGAAGGCACAUGAGGAUCACCCAUGUGACCUAGAUCC [Mat - Exclusion 4 - Eli Mod - D44] (Eterna round: R97, puzzle: Brourd's mod of Exclusion 4)” the “apparent KD of MS2 coat protein” value (input ligand: FMN 200 uM) was 268 nM and the “apparent KD of MS2 coat protein” value (input ligand: none) was 30.5 nM.

For “GGAUCGAGUGUGAGGAUAUACCACUGGAUACAGUGGUAGAAGGCACAUGAGGAUCACCCAUGUCUCUACGAUCC [Fiskers BMX 4 - 44] (puzzle: Brourd's mod of Exclusion 4)”, the “apparent KD of MS2 coat protein” value [2] was 16.3 nM.

“GGAUCGUAUGUCAGGAUAUACCACUGGAUACAGUGGUAGAAGGGACAUGAGGAUCACCCAUGUGUUAUCGAUCC [Fiskers BMX 4 - 55] (puzzle: Brourd's mod of Exclusion 4)” was tested, and the “apparent KD of MS2 coat protein” value [2] was 41.5 nM.

“GGAUCUUGGGUCAGGAUAUGCUGGUAUUUUUGCCAGCAGAAGGGACAUGAGGAUCACCCAUGUUCUUGGUUUUG [Magic-15] (puzzle: Brourd's mod of Exclusion 4)” was tested, and the “apparent KD of MS2 coat protein” value [2] was 11 nM.
